The chains are these.
B1: NB194-P29-z1 (Fc fusion)
heavy: QVQLVESGGGLVQPGGSLRLSCSASGHSFSIYDMGWFRQAADKERESVAVINFGRGTTYYAESVKGRFTISRDNAKNTVYLQMNSLRAEDTAVYSCGIDRRQYGLGIPPLADHWGQGSQVTVSS
notes: not shown: IgG4 constant region of vector pCDNA3.4-IgG4
B2: NB194-P29-z4 (Fc fusion)
heavy: QVQLVESGGGLVQPGGSLRLSCTASGHSFSIYDMGWFRQAADKERESVAVINFGRGTTYYAESVKGRFTISRDNAKNTVYLQMNSLRAEDTAVYSCGIDRRQYGLGIPPLADHWGQGSQVTVSS
notes: as for B1
B3: NB194-P29-z2 (Fc fusion)
heavy: QLQLVESGGGLVQPGGSLRLSCSASGHSFSIYDMGWFRQAADKERESVAVINFGRGTTYYAESVKGRFTISRDNAKNTVYLQMNSLRAEDTAVYSCGIDRRQYGLGIPPLADHWGQGSQVTVSS
notes: as for B1
B4: NB194-P29-z3 (Fc fusion)
heavy: QVQLVESGGGLVQPGGSLTLSCSASGHSFSIYDMGWFRQAADKERESVAVINFGRGTTYYAESVKGRFTISRDNAKNTVYLQMNSLRAEDTAVYSCGIDRRQYGLGIPPLADHWGQGSQVTVSS
notes: as for B1
B5: NB194-P29-z5 (Fc fusion)
heavy: QVQLVESGGGLVQPGGSLRLSCSASGHSFSIYDMGWFRQAPDKERESVAVINFGRGTTYYAESVKGRFTISRDNAKNTVYLQMNSLRAEDTAVYSCGIDRRQYGLGIPPLADHWGQGSQVTVSS
notes: as for B1
B6: NB147 (Fc fusion)
heavy: EVQVVESGGGVVQAGDSLRLSCVASGRTFSSVAMGWFRQAPGKEREFVAAISRSGGSAGYSDSVKDRSTISRDNAKNTVYLQMNSLKPEDTAVYFCAASELDFCSTLGCYDYWGQGIQVTFSS
notes: as for B1
B7: NB734 (Fc fusion)
heavy: QVQLVETGGGLVQAGGSLRLSCAASGDTILFSAVGWHRQAPGKERELVAAITNSGVTYYADSVKGRFSISRDNAKNTVYLQMNSLKPEDTAVYYCNAGAPPPGEFGYDESDYWGQGTQVTVSS
notes: as for B1
B8: NB202 (Fc fusion)
heavy: EVQVVESGGGLVQAGGSLRLSCTASGDTRLASAMGWYRQAPGKERELVAAITNSGLTYYADSVEGRFTISRDSAKNTVYLQMNSLKPEDTAVYYCNAGAPPPGGLGYDESDYWGQGTQVTVSS
notes: as for B1
B9: NB173 (Fc fusion)
heavy: QVQLQESGGGLVQAGGSLRLSCAASGRSFNSYAMGWFRQAPGKEREFVAAISQNGGTQGYAEAVKDRFTISRDNTNKVVALQMNSLKPEDTAAYYCAADGDASDISYAPPRDYEYDYWGQGTQVTVSS
notes: as for B1
B10: NB223 (Fc fusion)
heavy: EVQLVESGGGLVQAGGSLRLSCAASGRTFSSYGMGWFRQAPGKEREFVAAVNWSNSSAYYADSVKDRFTISSDNAKSTIYLQMNSLKPEDTAVYYCRPYSDYVTYDPDDYDYWGQGTQVTVSS
notes: as for B1
B11: NB211 (Fc fusion)
heavy: EVQVVETGGGLAQAGGSLRLSCAASGRTFSGYTVGWYRQSPGKEREFVAAISYSGGSTDYADSVKGRFTISRDNANNTVYLQMGSLKAEDTAVYYCNRVIRGTRDPSIYYVMDYWGKGTLVTVSS
notes: as for B1
B12: NB532 (Fc fusion)
heavy: QVQLVETGGGLVQAGGSLRLSCAASGRTFSSYNMGWFRQAPGKEREFVAAISWSGGSQGYAAAVKDRFTISRDNAKNTVYLQMNSLKAEDTAVYYCAAKYHSGSYYYTSIRPEEYDYWGQGTQVTVSS
notes: as for B1
B13: NB220 (Fc fusion)
heavy: QVQLQESGGGLLQAGDSLRLSCIVSGRTFSSYAIGWFRQAPGKEREFVAGINWSGRSQYYSESVKDRFTVSIDNAKNTVYLQMNSLKPEDTAVYYCAAERHLGVPTVRDDEYDDWGQGTQVTVSS
notes: as for B1
B14: NB222 (Fc fusion)
heavy: QVQLVESGGGLVQAGGSLRLSCAASGGTFSNFNVGWFRQAPGKEREFVAASNWSAGTTHYSDSVKGRFTISRDNAANTAYLQMNSLRPDDTAVYYCNRVIRGTTYPDVYYGMDYWGKGTLVTVSS
notes: as for B1
B15: NB171 (Fc fusion)
heavy: QVQLVESGGGLVQAGGSLRLSCAASGRTFSSYAMGWFRQALGKEREWIAGVSMSGRTTYYAAPVKDRFTISRDNAKNTVTLQMNSLKPEDTAVYYCAAGRAQAEIPIMRAQEYDSWGQGTQVTVSS
notes: as for B1
B16: NB215 (Fc fusion)
heavy: EVQVVESGGGLVQAGDSLRLSCAASGGTISGYEMGWFRQAPGKEREFVAGISRNGRSTGYSDSAKDRFTISRDNAKNTVYLQMNSLKPEDTAVYYCAAGLKADYGDSYVDTSTRNYNYWGQGTQVTVSS
notes: as for B1
B17: NB182-z4 (Fc fusion)
heavy: EVQLVESGGGLVQPGGSLRLSCSASGDTSFISAAGWYRQAPGKERELVSAITNTGITYYPDSVKGRFTISRDNSKNTVYLQMNNLRAEDTAVYYCNAGAPPPGGLGYDESDYWGQGTQVTVSS
notes: format not restated; not shown: IgG4 constant region of vector pCDNA3.4-IgG4
B18: NB182-z3 (Fc fusion)
heavy: EVQLVESGGGLVQPGGSLRLSCSASGDTSFISAAGWYRQAPGKERELVSAITNTGITYYPDSVKGRFTISRDNSKNTLYLQMNNLRAEDTAVYYCNAGAPPPGGLGYDESDYWGQGTQVTVSS
notes: as for B17
B19: NB182-z2 (Fc fusion)
heavy: EVQLVESGGGLVQPGGSLRLSCSASGDTSFISAAGWYRQAPGKERELVSAITNTGITYYPDSVKGRFTISRDNAKNTVYLQMNSLRAEDTAVYYCNAGAPPPGGLGYDESDYWGQGTQVTVSS
notes: as for B17
B20: NB182-z5 (Fc fusion)
heavy: EVQLVESGGGLVQPGGSLRLSCSASGDTSFISAAGWYRQAPGKERELVAAITNTGITYYPDSVKGRFTISRDNSKNTVYLQMNSLRAEDTAVYYCNAGAPPPGGLGYDESDYWGQGTLVTVSS
notes: as for B17
B21: NB182-z1 (Fc fusion)
heavy: EVQLVESGGGLVQPGGSLRLSCSASGDTSFISAAGWYRQAPGKERELVSAITNTGITYYPDSVKGRFTISRDNSKNTVYLQMNSLRAEDTAVYYCNAGAPPPGGLGYDESDYWGQGTQVTVSS
notes: as for B17
B22: NB194-z5 (Fc fusion)
heavy: EVQLVESGGGLVQPGGSLRLSCAASGRPFSIYDMGWFRQAPDKERESVAVINLSRGNTYYADSVKGRFTISRDNAKNTVYLQMNSLRAEDTAVYSCGVDRRQYGLGIPPLADHWGQGTQVTVSS
notes: as for B17
B23: NB194-z4 (Fc fusion)
heavy: EVQLVESGGGLVQPGGSLRLSCAASGRPFSIYDMGWFRQAPDKERESVAVINLARGNTYYADSVKGRFTISRDNAKNTVYLQMNSLRAEDTAVYSCGVDRRQYGLGIPPLADHWGQGTQVTVSS
notes: as for B17
B24: NB194-z1 (Fc fusion)
heavy: EVQLVESGGGLVQPGGSLRLSCAASGRPFSIYDMGWFRQAPDKERESVAVISLSRGNTYYADSVKGRFTISRDNAKNTVYLQMNSLRAEDTAVYSCGVDRRQYGLGIPPLADHWGQGTQVTVSS
notes: as for B17
B25: NB194-z2 (Fc fusion)
heavy: EVQLVESGGGLVQPGGSLRLSCAASGRPFSIYDMGWFRQAPDKERESVAVISLSRGNTYYADSVKGRFTISRDSAKNTVYLQMNSLRAEDTAVYSCGVDRRQYGLGIPPLADHWGQGTQVTVSS
notes: as for B17

For orientation: Kd means the free concentration of one partner at which half of the binding sites on the other are occupied at equilibrium, for simple one-to-one binding. Lower therefore signals higher affinity. Usually koff stands for a measure of how fast the partners let go of each other. Lower therefore signals slow dissociation. For orientation: kon means the second-order rate constant of association. A lower kon goes with slow association.

T1 sequence (Q15116 25-170 limits assumed): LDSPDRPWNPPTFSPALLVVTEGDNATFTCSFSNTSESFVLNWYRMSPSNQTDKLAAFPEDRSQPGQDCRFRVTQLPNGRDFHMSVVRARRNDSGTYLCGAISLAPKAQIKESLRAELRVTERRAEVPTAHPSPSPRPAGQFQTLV
T2 sequence (Q15116 25-170 limits assumed): as above

The first assay concerns the target T1, PD-1 (UniProt Q15116 25-170, limits assumed).
T1 construct: also called PD-1 protein
As to the kind of experiment: SPR; set-up and antigen form not restated. For orientation: Surface plasmon resonance follows binding to a sensor surface in real time, without labels.
B1: the Kd is 0.263 nM, the koff was 3.06e-05 s⁻¹ and the kon was determined as 117000 M⁻¹ s⁻¹.
In the same order, the values of B2 are 0.222 nM, 2.61e-05 s⁻¹ and 117000 M⁻¹ s⁻¹.
For the molecule B3, the Kd was 0.129 nM, the koff was found to be 1.66e-05 s⁻¹ and the kon amounted to 129000 M⁻¹ s⁻¹.
In the same order, the values of B4 are 0.202 nM, 3.75e-05 s⁻¹ and 186000 M⁻¹ s⁻¹.
In the same order, the values of B5 are 0.2 nM, 2.43e-05 s⁻¹ and 121000 M⁻¹ s⁻¹.

The next assay has as its target T2, human PD-1.Fc (human, UniProt Q15116 25-170, limits assumed).
T2 construct: also called PD-1; Fc protein; PD-1.hFc; not shown: human IgG Fc fragment
Description: SPR, antibody captured on protein A, PD-1.Fc in flow.
In turn, B6 gave a Kd of 2.75 nM, a koff of 0.000153 s⁻¹ and a kon of 55800 M⁻¹ s⁻¹.
Taken in the same sequence, the figures for B7 were 0.292 nM, 6.88e-05 s⁻¹ and 236000 M⁻¹ s⁻¹.
Taken in the same sequence, the figures for B8 were 0.328 nM, 6.77e-05 s⁻¹ and 206000 M⁻¹ s⁻¹.
In turn, B9 came in with a Kd of 83.1 nM, an off-rate constant (koff) of 0.000179 s⁻¹ and a kon of 2150 M⁻¹ s⁻¹.
In the same order, the values of B10 are 6.39 nM, 0.000863 s⁻¹ and 135000 M⁻¹ s⁻¹.
B11: the dissociation constant (Kd) was 1.33 nM, the koff amounted to 0.003 s⁻¹ and the on-rate constant (kon) is 2.26e+06 M⁻¹ s⁻¹.
Taken in the same sequence, the figures for B12 were 7.03 nM, 0.00092 s⁻¹ and 131000 M⁻¹ s⁻¹.
Taken in the same sequence, the figures for B13 were 0.219 nM, 0.000323 s⁻¹ and 1.48e+06 M⁻¹ s⁻¹.
Taken in the same sequence, the figures for B14 were 0.149 nM, 0.000306 s⁻¹ and 2.05e+06 M⁻¹ s⁻¹.
For the molecule B15, the equilibrium dissociation constant (Kd) turned out to be 6.21 nM, the koff was 0.000309 s⁻¹ and the kon came out at 49700 M⁻¹ s⁻¹.
In the same order, the values of B16 are 10.4 nM, 0.000508 s⁻¹ and 49000 M⁻¹ s⁻¹.

For a further assay, the target named is T3, PD-1.His (UniProt Q15116 25-170, limits assumed).
T3 construct: not shown: His tag
T3 sequence (Q15116 25-170 limits assumed): as above
As to the kind of experiment: SPR, antibody captured on protein A, PD-1.His in flow.
The molecule B17 returned a Kd of 15 nM, a koff of 9.73e-05 s⁻¹ and a kon of 6480 M⁻¹ s⁻¹.
Taken in the same sequence, the figures for B18 were 11.8 nM, 7.11e-05 s⁻¹ and 6000 M⁻¹ s⁻¹.
B19: the Kd was found to be 8.2 nM, the koff stood at 4.59e-05 s⁻¹ and the kon worked out at 5600 M⁻¹ s⁻¹.
Taken in the same sequence, the figures for B20 were 14 nM, 9.07e-05 s⁻¹ and 6460 M⁻¹ s⁻¹.
Taken in the same sequence, the figures for B21 were 8.25 nM, 7.61e-05 s⁻¹ and 9220 M⁻¹ s⁻¹.
Taken in the same sequence, the figures for B22 were 0.598 nM, 7.92e-05 s⁻¹ and 133000 M⁻¹ s⁻¹.
The molecule B23 displayed a Kd of 0.586 nM, a koff of 7.79e-05 s⁻¹ and a kon of 133000 M⁻¹ s⁻¹.
In the same order, the values of B24 are 0.837 nM, 0.000107 s⁻¹ and 128000 M⁻¹ s⁻¹.
Regarding B25, the equilibrium dissociation constant (Kd) amounted to 1.01 nM, the koff is 9.88e-05 s⁻¹ and the kon was determined as 97600 M⁻¹ s⁻¹.
